Experimental data as given in patent US20080044423A1 (AstraZeneca / MedImmune, published 2008).
“And” between values parts separate entries of the source, which are not always exact repeats. Equal entries are not always repeated. Where two headings read alike, the source gives them in different places.

B1: murine IL-17A (R & D Systems) (ligand, UniProt Q62386 22-158, looked up)
chain: TVKAAAIIPQSSACPNTEAKDFLQNVKVNLKVFNSLGAKVSSRRPSDYLNRSTSPWTLHRNEDPDRYPSVIWEAQCRHQRCVNAEGKLDHHMNSVLIQQEILVLKREPESCPFTFRVEKMLVGVGCTCVASIVRQAA

Legend:
[1] = target: TINA1 IgG; experiment: DELFIA epitope competition vs biotinylated human IL-17A on immobilised IgG
[2] = target: TINA10 IgG; experiment: as above
[3] = target: TINA51 IgG; experiment: as above
[4] = target: T1, cynomolgus IL-17A (cynomolgus, UniProt Q16552 24-155 (human entry), limits assumed); experiment: cell-based or functional assay
T1 chain: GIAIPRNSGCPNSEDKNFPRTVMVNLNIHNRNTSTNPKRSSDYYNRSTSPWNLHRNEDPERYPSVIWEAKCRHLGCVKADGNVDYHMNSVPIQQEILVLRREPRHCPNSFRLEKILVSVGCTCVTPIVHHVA

[5] = target: human IL-17A (HT1080 assay of Example 1, source not stated) (human, UniProt Q16552 24-155); experiment: cell-based or functional assay
[6] = target: T1, cynomolgus IL-17A; experiment: cell-based or functional assay
[7] = target: T2, human IL-17A derived from the HEK-EBNA expression system (human, UniProt Q16552 24-155); experiment: cell-based or functional assay
[8] = target: T3, human IL-17A, untagged, E. coli derived (in house or Peprotech) (human, UniProt Q16552 24-155); experiment: cell-based or functional assay
[9] = target: T3, human IL-17A, untagged, E. coli derived …; experiment: cell-based or functional assay; remark: listed apart in the source
[10] = target: T3, human IL-17A, untagged, E. coli derived …; experiment: cell-based or functional assay; remark: listed apart in the source
[11] = target: B1; experiment: DELFIA epitope competition vs biotinylated human IL-17A on immobilised IgG
[12] = target: T4, human IL-17B (Peprotech) (human, UniProt Q9UHF5 21-180, limits assumed); experiment: as above
T4 sequence (looked up): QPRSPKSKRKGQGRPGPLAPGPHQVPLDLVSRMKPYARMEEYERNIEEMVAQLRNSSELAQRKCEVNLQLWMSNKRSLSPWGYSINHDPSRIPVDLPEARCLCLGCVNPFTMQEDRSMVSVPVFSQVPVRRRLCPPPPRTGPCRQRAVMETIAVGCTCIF

[13] = target: T5, human IL-17C (R & D Systems) (human, UniProt Q9P0M4 19-197); experiment: as above
T5 sequence (looked up): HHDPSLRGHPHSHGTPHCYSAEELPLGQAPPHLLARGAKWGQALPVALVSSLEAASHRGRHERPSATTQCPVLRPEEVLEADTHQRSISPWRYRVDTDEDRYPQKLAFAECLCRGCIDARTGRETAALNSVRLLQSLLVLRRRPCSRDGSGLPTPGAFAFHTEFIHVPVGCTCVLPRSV

[14] = target: T6, human IL-17D (Peprotech) (human, UniProt Q8TAD2 18-202, limits assumed); experiment: as above
T6 sequence (looked up): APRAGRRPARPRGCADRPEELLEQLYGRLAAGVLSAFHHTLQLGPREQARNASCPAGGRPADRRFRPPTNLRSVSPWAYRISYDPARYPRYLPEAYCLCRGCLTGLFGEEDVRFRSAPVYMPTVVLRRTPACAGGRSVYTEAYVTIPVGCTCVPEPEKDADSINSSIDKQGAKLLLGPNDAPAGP

[15] = target: T7, human IL-17E (R & D Systems) (human, UniProt Q9H293 33-177); experiment: as above
T7 sequence (looked up): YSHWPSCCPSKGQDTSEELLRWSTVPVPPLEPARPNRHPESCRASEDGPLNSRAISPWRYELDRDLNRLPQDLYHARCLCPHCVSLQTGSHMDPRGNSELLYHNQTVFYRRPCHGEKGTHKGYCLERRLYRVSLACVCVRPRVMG

[16] = target: T8, human IL-17F (Peprotech) (human, UniProt Q96PD4 31-163, limits assumed); experiment: as above
T8 sequence (looked up): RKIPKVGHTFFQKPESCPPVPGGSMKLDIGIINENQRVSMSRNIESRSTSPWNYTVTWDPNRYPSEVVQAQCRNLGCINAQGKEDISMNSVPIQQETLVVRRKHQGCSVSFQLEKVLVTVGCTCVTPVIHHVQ

[17] = target: T2, human IL-17A derived from the HEK-EBNA …; experiment: cell-based or functional assay; remark: listed apart in the source
[18] = target: native IL-17A derived from primary human T cells (human, UniProt Q16552 24-155, N-linked glycosylation); experiment: cell-based or functional assay
[19] = target: T3, human IL-17A, untagged, E. coli derived …; experiment: cell-based or functional assay; remark: listed apart in the source
[20] = target: T3, human IL-17A, untagged, E. coli derived …; experiment: cell-based or functional assay; remark: listed apart in the source
[21] = target: T3, human IL-17A, untagged, E. coli derived …; experiment: cell-based or functional assay; remark: listed apart in the source
[22] = target: B1; experiment: HTRF epitope competition vs HIS FLAG IL-17A binding the IgG
[23] = target: T4, human IL-17B (Peprotech); experiment: as above
[24] = target: T5, human IL-17C (R & D Systems); experiment: as above
[25] = target: T6, human IL-17D (Peprotech); experiment: as above
[26] = target: T7, human IL-17E (R & D Systems); experiment: as above
[27] = target: T8, human IL-17F (Peprotech); experiment: as above
[28] = target: T2, human IL-17A derived from the HEK-EBNA …; experiment: estimated from pA2 (Schild) analysis in the HT1080 IL-6 release assay

With B1 the “Fold difference from Human IL-17A” value [1] was 12 fold, the IC50 [1] was 98 nM and the “% (printed in the IC50 column, presumably inhibition)” value [2] was 50%. For the same binder, the “Fold difference from Human IL-17A” value [3] was 0.7 fold and the IC50 [3] was 35 nM.

B2: Antibody 1 IgG1 (antibody, V domains shown)
VH: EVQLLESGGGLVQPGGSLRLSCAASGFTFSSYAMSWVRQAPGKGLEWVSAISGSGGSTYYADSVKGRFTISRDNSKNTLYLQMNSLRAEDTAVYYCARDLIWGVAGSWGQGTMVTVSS
VL: NFMLTQPHSVSESPGKTVTISCTRSSGSLANYYVQWYQQRPGSAPTIVIFANNQRPSGVPDRFSGSIDSSSNSASLTISRLKTEDEADYYCQSYDDSSVVFGGGTKLTVL
notes: human IgG1, lambda; constant regions not in the listing; also called Antibody 01; TINA12 IgG1
For B2, the “HT1080 IL-6 release, IgG IC50” value [4] was 172 nM, the “HT1080 IL-6 release, IgG IC50” value [5] was 22 nM and the “Fold difference in cross-reactivity (IgG)” value [6] was 6 fold. For the same binder, the “HT1080 IL-6 release, IgG IC50” value [6] was 144 nM, the “HT1080 IL-6 release, IgG IC50” value [7] was 23 nM and the “chondrocyte IL-6 release, geometric mean IC50 at 0.2 nM IL-17A” value [8] was 29.9 nM. For the same binder, the “chondrocyte IL-6 release, geometric mean IC50 at 2 nM IL-17A” value [8] was 75.7 nM, the “chondrocyte IL-8 release, geometric mean IC50 at 0.2 nM IL-17A” value (from here on “chondrocyte IL-8 release … at 0.2 nM IL-17A”) [9] was 18.1 nM and the “chondrocyte IL-8 release, geometric mean IC50 at 2 nM IL-17A” value (from here on “chondrocyte IL-8 release … at 2 nM IL-17A”) [9] was 44.5 nM. For the same binder, the “chondrocyte MMP13 release, IC50 at 2 nM IL-17A” value [10] was 147 nM and > 400 nM, the “chondrocyte MMP13 release, geometric mean IC50 at 0.2 nM IL-17A” value [10] was 110 nM and the binding result [11] was “no binding (tested: approx 100:1 over labelled IL-17A)”. B2: no binding (tested: approx 100:1 over labelled IL-17A) [12]; no binding (tested: approx 100:1 over labelled IL-17A) [13]; no binding (tested: approx 100:1 over labelled IL-17A) [14]. B2: no binding (tested: approx 100:1 over labelled IL-17A) [15]; no binding (tested: approx 100:1 over labelled IL-17A) [16].

B3: Antibody 2 IgG1 (antibody, V domains shown)
VH: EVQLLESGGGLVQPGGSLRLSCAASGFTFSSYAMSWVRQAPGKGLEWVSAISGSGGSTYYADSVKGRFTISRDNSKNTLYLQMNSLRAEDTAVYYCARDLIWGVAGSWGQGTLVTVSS
VL: NFMLTQPHSVSESPGKTVTISCTRSSGSLANYYVQWYQQRPGSSPTIVIFANNQRPSGVPDRFSGSIDSSSNSASLTISGLKTEDEADYYCQSYDPHSVVFGGGTKLTVL
notes: human IgG1, lambda; constant regions not in the listing; also called Antibody 02
With B3 the “Fold difference in cross-reactivity (IgG)” value [6] was 12 fold, the “HT1080 IL-6 release, IgG IC50” value [6] was 18.3 nM and the “HT1080 IL-6 release, IgG IC50” value [7] was 1.5 nM. For the same binder, the “HT1080 synergised IL-6 release (125 pM human IL-17 + 25 pM human TNFα), IgG IC50” value [17] was 0.41 nM, the “T cell supernatant induced IL-6 production in HT1080 cells, IC50” value [18] was 0.25 nM and the “chondrocyte IL-6 release, geometric mean IC50 at 0.2 nM IL-17A” value [19] was 1.52 nM. The “chondrocyte IL-6 release, geometric mean IC50 at 2 nM IL-17A” value [19] was 5.51 nM, the “chondrocyte IL-8 release … at 0.2 nM IL-17A” value [9] was 2.3 nM and the “chondrocyte IL-8 release … at 2 nM IL-17A” value [9] was 7.91 nM. The “chondrocyte IL-8 release … at 0.2 nM IL-17A” value [20] was 1.49 nM, the “chondrocyte IL-8 release … at 2 nM IL-17A” value [20] was 7.18 nM and the “cartilage explant synergised IL-6 response, Mean IC50” value [21] was 3.39 nM. B3: no binding [22]; no binding [23]; no binding [24]. B3: no binding [25]; no binding [26]; no binding [27]. The Kd [28] was 0.188 nM.
